How the values were obtained:
[1] = test system: primary TMZ-resistant glioblastoma stem cells (GSC-R); assay: MTT viability of chemo-resistant cells; settings: Homo sapiens, Glioblastoma stem cell, 96 h, read-out: percent survival / viability
Protocol: In detail, GSCs and U87 parental cell line, which are sensitive to TMZ, were first maintained in low doses of TMZ (25 μM) and then successively exposed for two months to incremental doses of 25 μM of TMZ each time (up to 500 μM). After the killing of a majority of the cells, the surviving cells were maintained until a normal rate of growth were obtained. […] Cell viability was assessed by 3-(4,5-Dimethylthiazol-2-yl)-2,5-Diphenyl-tetrazoliumBromide (MTT) assay, as a function of redox potential (FIG. 24). Cells (5×10^3/well) were seeded and cultured in 96-well plate for 24 h in Basal Medium (BM). Then, culture media were replaced with fresh media containing the specific treatments, or in BM as a control condition (CTR).
Test was performed in triplicate after 96 h of treatment, by replacing culture media with 100 μL of fresh media added with 10 μL of MTT 5 mg/ml in D-PBS. After 4 h of incubation, media were removed and cells were lysed with 100 μL of 2-propanol/formic acid (95:5, by vol) for 10 min. Then, absorbance was read at 570 nm in microplate reader.

EphB4 = biological target: T1, EphB4 (Homo sapiens, UniProt P54760); settings: Epo for EphB4; cited from earlier work
T1 sequence (P54760 16-987): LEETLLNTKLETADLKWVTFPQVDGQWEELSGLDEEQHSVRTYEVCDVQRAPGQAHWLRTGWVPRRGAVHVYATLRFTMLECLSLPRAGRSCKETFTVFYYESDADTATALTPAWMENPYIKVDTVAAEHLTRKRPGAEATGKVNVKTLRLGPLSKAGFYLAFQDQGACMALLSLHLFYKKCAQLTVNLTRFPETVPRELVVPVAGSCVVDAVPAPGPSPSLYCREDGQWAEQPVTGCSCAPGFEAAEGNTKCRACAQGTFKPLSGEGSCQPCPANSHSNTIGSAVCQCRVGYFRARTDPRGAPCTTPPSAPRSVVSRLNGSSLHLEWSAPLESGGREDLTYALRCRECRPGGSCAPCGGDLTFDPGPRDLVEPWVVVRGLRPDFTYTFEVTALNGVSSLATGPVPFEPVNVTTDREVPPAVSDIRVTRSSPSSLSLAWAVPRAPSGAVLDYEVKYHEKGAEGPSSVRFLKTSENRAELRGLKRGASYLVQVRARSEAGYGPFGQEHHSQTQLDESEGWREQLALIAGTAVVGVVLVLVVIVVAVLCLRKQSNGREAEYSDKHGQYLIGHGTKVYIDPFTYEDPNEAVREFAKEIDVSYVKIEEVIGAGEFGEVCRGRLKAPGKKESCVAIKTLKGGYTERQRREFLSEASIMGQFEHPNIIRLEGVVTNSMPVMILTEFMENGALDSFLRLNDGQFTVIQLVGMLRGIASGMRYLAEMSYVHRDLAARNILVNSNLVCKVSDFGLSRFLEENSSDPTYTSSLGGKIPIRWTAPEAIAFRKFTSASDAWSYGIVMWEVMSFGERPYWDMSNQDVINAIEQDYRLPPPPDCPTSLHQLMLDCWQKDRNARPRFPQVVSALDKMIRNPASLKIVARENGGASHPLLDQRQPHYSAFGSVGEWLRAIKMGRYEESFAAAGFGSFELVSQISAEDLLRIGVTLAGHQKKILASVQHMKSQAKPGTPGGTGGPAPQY

murine EPO [2] = biological target: T2, murine EPO (murine, UniProt P07321 27-192, limits assumed); assay: SPR (ProteOn XPR36), anti-EPO (C4) immobilized by amine coupling, EPO as analyte; murine EPO
T2 construct: also called mEPO; m-EPO
T2 sequence (looked up): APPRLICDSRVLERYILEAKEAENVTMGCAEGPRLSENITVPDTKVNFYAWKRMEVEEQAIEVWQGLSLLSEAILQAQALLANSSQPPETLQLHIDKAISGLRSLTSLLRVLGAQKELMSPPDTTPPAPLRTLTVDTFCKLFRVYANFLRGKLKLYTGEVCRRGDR

murine EPO [3] = biological target: T2, murine EPO; assay: SPR (ProteOn XPR36), anti-EPO (C4) immobilized by amine coupling, EPO as analyte; murine EPO; fitted value

Cn1nnc2c(C(N)=O)ncn2c1=O [TMZ, Temozolomide]
viability at 100 µM [1]: ~93%

Epo: 30.4 kDa glycoprotein, main erythropoietic hormone
Kd (EphB4): 880 nM

B1: anti-EPO (C4) monoclonal antibody (antibody, V domains shown)
VH: EVKLQESGGGLVQPGGSLKLSCAASGFTFSTYTMSWVRQTPEKRLEWVAYISNGGDRTYYPDTVKGRFTISRDDAKNTLFLQMSSLKSEDTAMYYCARHNITTVPFTMDYWGQGTSVTVSS
VL: DIVLTQSPASLAVSLGQRATISCRASESVDYYGTGLMQWYQQRPGQPPKLLIYGASNVGSGVPARFSGSGSGTDFSLNIHPVEGDDIAMYFCQQTRKVPSTFGGGTKLEIK
notes: also called C4 antibody; anti-EPO (C4) mAB
koff (murine EPO [2]): 0.000669 s⁻¹ | kon (murine EPO [2]): 663 M⁻¹ s⁻¹ | Kd (murine EPO [3]): 1010 nM

Reference: patent US20240294624A1, “ANTI-ERYTHROPOIETIN ANTIBODY” (ANDREMACON S.R.L., priority 2021, published 2024)
